Broadly, the EC50 is the concentration that produces a half-maximal response.

The target of the assay is SNARE complex reconstituted and anchored on supported phospholipid bilayers (rat | human, UniProt P32851;P60880-2;P63045).

B1: synaptotagmin-1 C2AB fragment (residues 140-421), wild type (domain or fragment)
chain: EKLGKLQYSLDYDFQNNQLLVGIIQAAELPALDMGGTSDPYVKVFLLPDKKKKFETKVHRKTLNPVFNEQFTFKVPYSELGGKTLVMAVYDFDRFSKHDIIGEFKVPMNTVDFGHVTEEWRDLQSAEKEEQEKLGDICFSLRYVPTAGKLTVVILEAKNLKKMDVGGLSDPYVKIHLMQNGKRLKKKKTTIKKNTLNPYYNESFSFEVPFEQIQKVQVVVTVLDYDKIGKNDAIGKVFVGYNSTGAELRHWSDMLANPRRPIAQWHTLQVEEEVDAMLAVKK
In the case of B1, it took 12 nM to reach a half-maximal effect (EC50).

B2: synaptotagmin-1 C2AB fragment (residues 140-421) R398Q,R399Q mutant (domain or fragment)
chain: EKLGKLQYSLDYDFQNNQLLVGIIQAAELPALDMGGTSDPYVKVFLLPDKKKKFETKVHRKTLNPVFNEQFTFKVPYSELGGKTLVMAVYDFDRFSKHDIIGEFKVPMNTVDFGHVTEEWRDLQSAEKEEQEKLGDICFSLRYVPTAGKLTVVILEAKNLKKMDVGGLSDPYVKIHLMQNGKRLKKKKTTIKKNTLNPYYNESFSFEVPFEQIQKVQVVVTVLDYDKIGKNDAIGKVFVGYNSTGAELRHWSDMLANPQQPIAQWHTLQVEEEVDAMLAVKK
B2 returned an EC50 of 12 nM.

Source of the values: article PMC2587052 (Nature structural & molecular biology, 2008).
